According to paper PMC8113585 (Nature Communications, 2020):

Legend:
Conditions in all cases: both partners purified
[1] = molecular target: T1, SARS-CoV-2 nucleocapsid (N) protein, full length (N-FL, 1-419) (Severe acute respiratory syndrome …, UniProt P0DTC9); assay: SPR; Biacore X100; […]; room temperature; 1:1 binding model, […]
T1 construct: also called SARS-CoV-2 N protein

[2] = molecular target: T2, SARS-CoV nucleocapsid (N) protein, full length (N-FL) (Severe acute respiratory syndrome …, UniProt P59595); assay: as above
T2 construct: also called SARS-CoV N protein; SARS-CoV N-FL

[3] = molecular target: T3, MERS-CoV nucleocapsid (N) protein, full length (N-FL) (MERS-CoV, strain , UniProt K9N4V7); assay: as above
T3 construct: also called MERS-CoV N protein; MERS-CoV N-FL

[4] = molecular target: T4, SARS-CoV-2 full-length nucleocapsid (N) protein (N-FL: 1-419) (Severe acute respiratory syndrome …, UniProt P0DTC9); assay: SPR; Biacore X100; […]; room temperature; 1:1 binding model
T4 construct: also called SARS-CoV-2 N protein

[5] = molecular target: T5, SARS-CoV N protein (N-FL) (Severe acute respiratory syndrome …, UniProt P59595); assay: as above
T5 construct: also called SARS-CoV N-FL

[6] = molecular target: T6, MERS-CoV N protein (N-FL) (MERS-CoV, strain , UniProt K9N4V7); assay: as above
T6 construct: also called MERS-CoV N-FL; Middle East respiratory syndrome coronavirus N protein

| Binder | koff [1] [s⁻¹] | kon [1] [M⁻¹ s⁻¹] | Kd [2] [nM] | koff [2] [s⁻¹] | kon [2] [M⁻¹ s⁻¹] | Kd [3] [nM] | koff [3] [s⁻¹] | kon [3] [M⁻¹ s⁻¹] | Kd [4] [nM] | Kd [5] [nM] | Kd [6] [nM] |
| --- | --- | --- | --- | --- | --- | --- | --- | --- | --- | --- | --- |
| mAb nCoV396 (recombinant human IgG1) (antibody, V domains shown, also called mAb-396; IgH ID H16030) VH: QVQLVESGGGVVQPGRSLRLSCAASGFTFSSYIMHWVRQAPGKGLEWVAVISYDGSNEAYADSVKGRFTISRDNSKNTLYLQMSSLRAEDTGVYYCARETGDYSSSWYDSWGRGTLVTVSS VL: QLVLTQSPSASASLGASVKLTCTLSSGHSNYAIAWHQQQPEKGPRYLMKVNSDGSHTKGDGIPDRFSGSSSGAERYLTISSLQSEDEADYYCQTWGTGIQVFGGGTKLTVL | 2.89e-06 | 2830 | 7.44 | 0.000295 | 39700 | 7.43 | 0.0004 | 53800 | – | – | – |
| human monoclonal antibody nCoV396, recombinant IgG1 (antibody, V domains shown, also called mAb nCoV396) VH: QVQLVESGGGVVQPGRSLRLSCAASGFTFSSYIMHWVRQAPGKGLEWVAVISYDGSNEAYADSVKGRFTISRDNSKNTLYLQMSSLRAEDTGVYYCARETGDYSSSWYDSWGRGTLVTVSS VL: QLVLTQSPSASASLGASVKLTCTLSSGHSNYAIAWHQQQPEKGPRYLMKVNSDGSHTKGDGIPDRFSGSSSGAERYLTISSLQSEDEADYYCQTWGTGIQVFGGGTKLTVL | – | – | – | – | – | – | – | – | 1.02 | 7.4 | 7.4 |
